Data published in the supplement of paper PMC10567573.
± gives the standard deviation.

Experiment: protein stability index of a GFP-peptide fusion (GPS, HEK-293T) (PSI 1-6); higher = more stable
[1] = treatment: DMSO, c terminus: a fixed tail appended
[2] = treatment: MLN4924 1 uM, 8 h, c terminus: a fixed tail appended
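Further: 24-mer peptide tiles fused after GFP, lentivirally expressed, FACS-sorted into six equal bins by GFP/DsRed ratio, decoded by Illumina sequencing, PSI is the read-weighted mean bin number.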

Sequence	protein stability index [1]	protein stability index [2]	protein stability index (treatment: DMSO, c terminus: native)	protein stability index (treatment: MLN4924 1 uM, 8 h, c terminus: native)
ALPEAPAPLLPHITATSLLGTRES [BCL2L13]	4.67 ± 0.23	4.56 ± 0.16		
QQLAAEPVPTGFFNMWGFGRVSKQ [WDR41]	3.56 ± 0.35	3.49 ± 0.25		
SSKFYDLFLMECEESPNGSEGACE [RHOBTB1]	3.72 ± 0.74	3.79 ± 0.1		
IQNSDNDLPVVQGSSSFSLKGYPS [TRIM29]	3.91 ± 0.29	4.07 ± 0.2		
IRVMVHGRNHTPFLGHHSFSVRPG [SCNN1D]	2.55 ± 0.24	2.85 ± 0.88		
SGGRGPQGDKAIREQGPREQEPEL [PBXIP1]	5.44 ± 0.19	5.5 ± 0.25		
SDCEEEEEEEEEEGSGHSTGEDSA [WEE1]	5.57 ± 0.2	5.49 ± 0.33		
HKRPHVDFFLEVVSQWYELVVFTA [CTDNEP1]	3.06 ± 0.76	2.77 ± 1.2		
NVEMDATPGIDLTRVLAEMREQYE [KRT13]	4.47 ± 0.17	4.75 ± 0.32		
YLQIFATRRSCIDESQISAEEAED [FAM189A2]	3.71 ± 0.14	3.92 ± 0.32		
QDDLENPMLETASKLLLSGTADGA [ANKRD17]	5.14 ± 0.33	5.2 ± 0.36		
CHPDDQFTTSILRHWCMKHDELLA [INTS3]	3.03 ± 0.28	3.06 ± 0.41		
CLETLPEFRDDRDLVMALSAGGHG [KCNA4]	3.68 ± 0.26	3.51 ± 0.34		
QIITVTVQTGLDQYQQVPVEIVKS [IQUB]	2.32 ± 0.17	2.07 ± 0.38		
KKFLTLGSKFRYSGRTQAQTRRAS [EPB41L3]	3.27 ± 0.61	3.49 ± 0.41		
IKRLVGSDQETLRIHERLVAGSLA [SLC25A25]	2.74 ± 0.31	2.62 ± 0.18		
CHELLGHVPLLAEPSFAQFSQEIG [TPH1]	3.1 ± 0.27	3.02 ± 0.26		
ERHTMDLTVEGFQSWMWRGLTFLL [TMEM120A]	2.11 ± 0.41	2.28 ± 0.092		
GGRRPGTSPALLQGTAEEDHVDLS [CDKN1A]	5.46 ± 0.23	5.33 ± 0.18		
IQSWDINSRRNINYRSFEPILRLL [ZER1]	2.31 ± 0.099	2.41 ± 0.21		
MHHCKRYRSPEPDPYLSYRWKRRR [CLK3]	3.49 ± 0.39	3.69 ± 0.21		
QFVSSVPRCDLVDLGEGKICFCCE [FAM189A2]	2.67 ± 0.37	2.98 ± 0.6		

Sequence	protein stability index [1]	protein stability index [2]	protein stability index (treatment: DMSO, c terminus: native)	protein stability index (treatment: MLN4924 1 uM, 8 h, c terminus: native)
QHLPAQEQWDRLLVLYPTSLAIFS [PLEKHN1]	2.55 ± 0.53	2.6 ± 0.59		
ATSVTVPGAGVPSGSGGTVAPATM [ZBTB22]	4.7 ± 0.38	4.64 ± 0.43		
NDINILRVSNPGRLAELLLLETDA [GADD45A]	2.31 ± 0.19	2.5 ± 0.5		
ANWQPKVAPATWSAGVPPSAPLQG [SNAP91]	4 ± 0.098	3.85 ± 0.25		
WKLQKKEHPPEVSRETQRTPMNHQ [FBXO34]	4.52 ± 0.11	4.49 ± 0.16		
VNNDKSISVQELMGCLGVAKEDGK [SMOC2]	4.47 ± 0.13	4.62 ± 0.19		
STVTPVPGQEKGSALEGRADTTTG [EHMT1]	5.51 ± 0.32	5.53 ± 0.24		
LPGWEDIESKIPLNMEEPPVEEPE [SLC19A2]	5.51 ± 0.32	5.24 ± 0.23		
VLQIDNARLAADDFRVKYETELAM [KRT18]	3.04 ± 0.12	3.3 ± 0.33		
APPPADSAPQQNGQPLRPLVPDAS [PDLIM7]	5.27 ± 0.12	5.37 ± 0.13		
LGPLGSTAFLPDSKCLVDDGTGRM [GALNT9]	3.89 ± 0.36	4.24 ± 0.21		
VPFVRVKREREVDEDSEPEREVRA [USP39]	5.15 ± 0.26	5.17 ± 0.14		
DLGLAPRELAERGVRIVSRGRTQL [PCDHGA10]	3.75 ± 0.16	3.81 ± 0.25		
PLDILAQPLEASNPALEGLTQPLQ [DNAAF3]	4.9 ± 0.28	4.78 ± 0.16		
LIKEGGMPLLRDIIKMATARQETK [ZER1]	2.69 ± 0.32	2.65 ± 0.38		
SGRARQQDEEMLELPAPAEVAAKN [MLH1]	5.52 ± 0.29	5.2 ± 0.17		
IHQETVSKNGNGLKNTPRFKRRRV [PCMTD2]	4.41 ± 0.27	4.63 ± 0.27		
DSMYGECRTYIIHYYLMDDTVEIR [EFHC1]	2.35 ± 0.6	2.6 ± 0.69		
IFCLHGGLSPSIDTLDHIRALDRL [PPP2CA]	2.29 ± 0.59	2.21 ± 0.17		
CALNALTTTVCLVAAALRYLQIFA [FAM189A2]	2.75 ± 0.37	3.1 ± 0.23		
VERKRLRNRLAATKCRKRKLERIA [JUNB]	4.07 ± 0.42	4.2 ± 0.34		
SDFQIEPGFYATYESTLFEDQVPA [MIA2]	3.92 ± 0.27	3.7 ± 0.31		

Sequence	protein stability index [1]	protein stability index [2]	protein stability index (treatment: DMSO, c terminus: native)	protein stability index (treatment: MLN4924 1 uM, 8 h, c terminus: native)
GHVLLTDSEFSMQEPMVPAKLGTQ [PPFIA4]	4.31 ± 0.1	3.94 ± 0.26		
GMEGDWSWVDDTPFNKVQSARFWI [CD207]	1.82 ± 0.3	2.25 ± 0.32		
AGNSSRNSSQSSSDGSCKTAGEMV [BTBD10]	5.16 ± 0.35	5.14 ± 0.22		
RADPLVCATGLLGSAPFLFLSLAC [SPNS1]	3.37 ± 0.32	3.04 ± 0.22		
KKDTLTEEETQFYISETVLAIDAI [STK38L]	3.85 ± 0.3	3.97 ± 0.15		
TLVSSGSGTMGAAKVTGEVLDILT [FLOT1]	2.97 ± 0.44	2.91 ± 0.49		
PPPPPSPSSLGPLLPLQREPLYNW [BTBD1]	3.78 ± 0.15	3.73 ± 0.25		
SGRFIVIIPRTVIDGLDLLKKEHP [SMG5]	2.9 ± 0.55	3.31 ± 0.78		
ILPKELQGWVREHCPESGEEAVIL [ZSCAN9]	2.74 ± 0.35	2.95 ± 0.47		
VIQPALPGQPLPGASVRGLHPVQK [TRAF3IP2]	3.76 ± 0.34	3.66 ± 0.39		
AYYRGAVGALLVYDIAKHLTYENV [RAB11A]	3.11 ± 0.5	2.89 ± 0.59		
PVKKQLQGASWELQSLRPHDEDIK [ZNF396]	4.62 ± 0.21	4.72 ± 0.38		
YYSPILDQWTPIAAMLRGQSDVGV [KLHL13]	2.4 ± 0.3	2.26 ± 0.3		
EGYTPLMEAAREGHEEMVALLLGQ [ANKRD17]	4.07 ± 0.32	4.07 ± 0.22		
NPRAPVIIYKQTKGGVQNFNKDLV [CEP70]	2.52 ± 0.18	2.46 ± 0.25		
ATLICMAMQASKATKITLSAIYKW [FOXJ1]	3.15 ± 0.48	2.92 ± 0.71		
MPLLRDIIKMATARQETKEMARKV [ZER1]	2.99 ± 0.3	3.06 ± 0.19		
EDQHRLYQQIKAGAYDFPSPEWDT [CAMK2D]	4.36 ± 0.26	4.42 ± 0.21		
WFSLASVIFLLLFAPFIVYYFIMA [DHCR7]	2.27 ± 0.53	2.34 ± 0.44		
TKRCFRLAPTFSNLLLQPTTNPHT [SMG5]	2.41 ± 0.22	2.59 ± 0.29		
QSLDEPGGATFLLTAKQLIKSIVE [TRIM63]	2.6 ± 0.33	2.32 ± 0.37		
DEQEKGIVTKFYQLSATGQKLYVR [FAN1]	2.92 ± 0.22	2.94 ± 0.54		

Sequence	protein stability index [1]	protein stability index [2]	protein stability index (treatment: DMSO, c terminus: native)	protein stability index (treatment: MLN4924 1 uM, 8 h, c terminus: native)
VGYTTLVGNNHESWGWDLGRNRLY [SPSB1]	2.26 ± 0.35	2.12 ± 0.25		
LRVEFAAENYLSGGGPGDGGGADT [FBXO33]	4.16 ± 0.18	4.13 ± 0.26		
VAEKVVVITKHNDDEQYAWESSAG [HSP90AB1]	4.53 ± 0.11	4.34 ± 0.29		
IGSCVTNPCGPRSRCGPCNTFGY [KRT33B]			2.9 ± 0.28	2.97 ± 0.34
TPYVRWNYVAKNFAQALGCVLYAC [SOAT2]	2.7 ± 0.84	2.41 ± 0.34		
RYVEFNLLYDRGTKFGLFTPGSRI [CPOX]	2.52 ± 0.75	2.26 ± 0.27		
HMEALEIAANLENKATNTDHLTTV [C8orf76]	4.76 ± 0.18	4.78 ± 0.23		
KKAEKKLEENPYDLDAWSILIREA [CSTF3]	3.19 ± 0.36	3.26 ± 0.41		
PEVTSALLESLNQQRLQGQLCDVS [ZBTB22]	3.57 ± 0.23	3.65 ± 0.35		
CCIDWTHVTDPLIGCKKPVSASGK [SMG5]	3.05 ± 0.21	3.09 ± 0.18		
LREERKKAKKNKDKYVGVSSDSVG [CLINT1]	4.95 ± 0.17	5.09 ± 0.15		
AVAQTAHLPADSEVTLEANPTSAP [RSAD1]	5.4 ± 0.14	5.35 ± 0.23		
SIPLMGFEFEVRVCDSCHEAITDE [WDFY2]	3.38 ± 0.17	3.54 ± 0.32		
FPSLHQSLPQNQCYMATTKSQTAC [EHMT1]	3.06 ± 0.15	3.47 ± 0.2		
LLMTADILAETGIRKTVKRLRKHQ [ELOA2]	2.41 ± 0.31	2.84 ± 0.25		
LRRQKSLRLEWETQQELRKIREKE [IQUB]	3.94 ± 0.28	4.02 ± 0.091		
VDFSLSGRLLFAGYNDYTINVWDV [GNB5]	3.23 ± 0.53	2.58 ± 0.61		
KRPAWGSRRFEAVGWWALLALVTL [POMT2]	2.64 ± 0.71	2.29 ± 0.24		
CQVALNFANEEEAKKFRKAVTDLL [WASL]	1.91 ± 0.35	2.53 ± 0.84		
LTYGEVRNSKASAYCLDQGAEDGD [GALNT9]	5.37 ± 0.29	5.3 ± 0.29		
TETDSLVSAQRERPRRRDGPEHAT [DVL3]	5.24 ± 0.13	5.33 ± 0.3		
LNQVADLLEQSLEEFAQAESKDQG [ALDH8A1]	5.18 ± 0.14	5.21 ± 0.53		
